From publication PMC5489075, “Purification and characterisation of the fission yeast Ndc80 complex” (Protein Expression and Purification, 2017) come the findings set out here.

The target in this assay is T1, Ndc80-eGFP holo complex (S. pombe, UniProt Q10198 1-624; Q10173 1-441; Q9UST6 1-198; Q10430 1-238).
T1 construct: Ndc80, S. pombe, full-length 624 a.a; Nuf2, S. pombe, full-length 441 a.a; Spc24, S. pombe, full-length 198 a.a; Spc25, S. pombe, full-length 238 a.a; also called Ndc80 holo complex; Ndc80 complex; source: E. coli BL21 (DE3) RIL; two sub-complexes purified, mixed, purified (Ni-TED, TEV cleavage, Superose 6 size-exclusion chromatography); not shown: 6His-Z, N-terminal, cleaved; Z-tag, N-terminal, …
T1 sequence (Q10198 whole entry, chain 1 of 4): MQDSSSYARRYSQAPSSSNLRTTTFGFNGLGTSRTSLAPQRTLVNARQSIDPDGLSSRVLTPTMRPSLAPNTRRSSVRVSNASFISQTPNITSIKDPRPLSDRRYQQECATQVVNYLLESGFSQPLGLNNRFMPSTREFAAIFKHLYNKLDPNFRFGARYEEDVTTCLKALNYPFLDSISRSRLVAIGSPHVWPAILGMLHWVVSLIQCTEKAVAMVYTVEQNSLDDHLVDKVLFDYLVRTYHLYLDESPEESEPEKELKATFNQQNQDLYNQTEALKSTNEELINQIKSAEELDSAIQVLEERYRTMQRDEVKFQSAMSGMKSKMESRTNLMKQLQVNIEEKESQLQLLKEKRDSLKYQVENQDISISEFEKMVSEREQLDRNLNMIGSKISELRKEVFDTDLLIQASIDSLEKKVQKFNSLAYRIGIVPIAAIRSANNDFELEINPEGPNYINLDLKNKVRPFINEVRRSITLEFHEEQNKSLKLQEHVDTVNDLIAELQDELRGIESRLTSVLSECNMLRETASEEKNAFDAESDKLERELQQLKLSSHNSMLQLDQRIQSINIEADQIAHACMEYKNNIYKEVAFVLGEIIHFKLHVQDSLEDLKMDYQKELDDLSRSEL
T1 sequence (Q10173 whole entry, chain 2 of 4): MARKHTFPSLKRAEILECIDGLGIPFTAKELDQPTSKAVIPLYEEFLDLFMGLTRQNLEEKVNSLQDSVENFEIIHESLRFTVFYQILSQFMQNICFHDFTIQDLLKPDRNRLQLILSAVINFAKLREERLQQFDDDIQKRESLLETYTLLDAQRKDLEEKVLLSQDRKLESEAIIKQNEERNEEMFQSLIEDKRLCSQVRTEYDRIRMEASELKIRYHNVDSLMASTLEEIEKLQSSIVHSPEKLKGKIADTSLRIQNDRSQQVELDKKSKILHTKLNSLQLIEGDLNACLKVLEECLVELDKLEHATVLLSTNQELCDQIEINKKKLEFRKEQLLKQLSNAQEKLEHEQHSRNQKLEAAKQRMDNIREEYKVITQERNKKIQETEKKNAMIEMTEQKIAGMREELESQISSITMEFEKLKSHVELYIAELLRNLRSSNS
T1 sequence (Q9UST6 whole entry, chain 3 of 4): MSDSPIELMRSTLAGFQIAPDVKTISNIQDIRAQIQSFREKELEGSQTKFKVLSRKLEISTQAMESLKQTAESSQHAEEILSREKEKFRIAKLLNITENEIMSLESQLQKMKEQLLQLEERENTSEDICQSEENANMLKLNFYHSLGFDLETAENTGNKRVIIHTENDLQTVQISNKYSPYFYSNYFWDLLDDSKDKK
T1 sequence (Q10430 whole entry, chain 4 of 4): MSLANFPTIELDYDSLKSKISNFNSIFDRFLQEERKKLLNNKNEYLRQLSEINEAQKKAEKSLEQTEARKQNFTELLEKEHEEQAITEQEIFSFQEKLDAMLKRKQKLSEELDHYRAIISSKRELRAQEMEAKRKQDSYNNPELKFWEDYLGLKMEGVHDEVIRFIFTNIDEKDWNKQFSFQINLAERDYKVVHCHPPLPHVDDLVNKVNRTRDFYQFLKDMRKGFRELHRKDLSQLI
Kind of assay: TIRF microscopy; 100 pM Ndc80-eGFP holo complex on dynamic Cy5-microtubules with 10 nM unlabelled Dis1 or 20 nM unlabelled Mal3; read-out is the place of the eGFP signal (lattice or growing plus end); BRB80 with 85 mM KCl, 30 °C. Particulars: both partners purified.

B1: Mal3 (natural protein, S. pombe, UniProt Q10113 1-308, looked up)
chain: MSESRQELLAWINQVTSLGLTRIEDCGKGYAMIQIFDSIYQDIPLKKVNFECNNEYQYINNWKVLQQVFLKKGIDKVVDPERLSRCKMQDNLEFVQWAKRFWDQYYPGGDYDALARRGNRGPANTRVMNSSAGATGPSRRRQVSSGSSTPSMTKSSANNNNVSSTANTAAVLRAKQAQQQITSLETQLYEVNETMFGLERERDFYFNKLREIEILVQTHLTTSPMSMENMLERIQAILYSTEDGFELPPDQPADLTTALTDHDTNNVAEEAQMTDLKDSETQRVPSAPDFVHARLQSLEVDDDENITF
notes: Mal3, fission yeast EB1 microtubule plus-end tracking protein; also called Mal3/EB1; unlabelled Mal3
As to B1, the binding result is listed as “binds”.
